These results are taken from US6063592A, “Kell protein proteolytic activity” (New York Blood Center, Inc., priority 1998, dated 2000).

Numbering of substitutions follows the chain as printed. Names and notes keep the numbering of the source. Residues, ends and D or L forms follow the SMILES beside them.

Assay [1] deals with Kell protein. Kind of assay: Inhibition of Kell proteolytic activity by phosphoramidon. It is filed as biochemical, human.
Assay [2] deals with T1, Kell protein (Homo sapiens, UniProt P23276).
T1 construct: placing the cDNA that encodes the extracellular portion of Kell in a baculovirus transfer vector pAcGP67-A; made in house; host or cells: sf9 insect cells, baculovirus (pAcGP67A), protein-containing culture medium
T1 sequence (P23276 68-732): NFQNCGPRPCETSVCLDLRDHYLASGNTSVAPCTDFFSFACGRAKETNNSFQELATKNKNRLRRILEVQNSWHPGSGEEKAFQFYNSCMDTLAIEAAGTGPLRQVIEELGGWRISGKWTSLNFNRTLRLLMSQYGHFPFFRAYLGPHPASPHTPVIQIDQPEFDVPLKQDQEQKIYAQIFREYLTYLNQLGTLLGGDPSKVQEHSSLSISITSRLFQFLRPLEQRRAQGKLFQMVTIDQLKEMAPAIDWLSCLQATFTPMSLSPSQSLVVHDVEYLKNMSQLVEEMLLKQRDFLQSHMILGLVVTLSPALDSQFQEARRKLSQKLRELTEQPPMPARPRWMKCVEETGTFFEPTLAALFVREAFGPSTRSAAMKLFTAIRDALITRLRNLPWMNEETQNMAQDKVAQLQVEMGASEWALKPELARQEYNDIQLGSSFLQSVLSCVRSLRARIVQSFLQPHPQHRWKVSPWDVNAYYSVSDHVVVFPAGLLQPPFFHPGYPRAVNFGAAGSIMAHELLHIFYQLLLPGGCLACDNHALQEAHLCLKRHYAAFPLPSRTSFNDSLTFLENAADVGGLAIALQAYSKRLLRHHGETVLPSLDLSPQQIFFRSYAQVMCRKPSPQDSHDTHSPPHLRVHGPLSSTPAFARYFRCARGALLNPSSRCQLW
Described as above. It is filed as biochemical. As to conditions: Kell protease; read-out: Concentration which gives 50% of inhibition.

Assay [3] deals with hematopoiesis cell culture system. Kind of assay: Hematopoiesis cell culture system grown on methyl cellulose plates. It is filed as cell-based. As to conditions: preliminary studies. The text has this:
Meanwhile, the concentration of phosphoramidon needed to inhibit the proteolytic cleavage of big-endothelins by ECE-1 and Kell protein are different. While it is not intended to be bound by theory, it is possible that Kell participates in the proteolytic processing of growth factors or cytokines during hematopoiesis.

Assay [4] has as its target T2, Kell protein (Homo sapiens, UniProt P23276).
T2 sequence (P23276 1-732): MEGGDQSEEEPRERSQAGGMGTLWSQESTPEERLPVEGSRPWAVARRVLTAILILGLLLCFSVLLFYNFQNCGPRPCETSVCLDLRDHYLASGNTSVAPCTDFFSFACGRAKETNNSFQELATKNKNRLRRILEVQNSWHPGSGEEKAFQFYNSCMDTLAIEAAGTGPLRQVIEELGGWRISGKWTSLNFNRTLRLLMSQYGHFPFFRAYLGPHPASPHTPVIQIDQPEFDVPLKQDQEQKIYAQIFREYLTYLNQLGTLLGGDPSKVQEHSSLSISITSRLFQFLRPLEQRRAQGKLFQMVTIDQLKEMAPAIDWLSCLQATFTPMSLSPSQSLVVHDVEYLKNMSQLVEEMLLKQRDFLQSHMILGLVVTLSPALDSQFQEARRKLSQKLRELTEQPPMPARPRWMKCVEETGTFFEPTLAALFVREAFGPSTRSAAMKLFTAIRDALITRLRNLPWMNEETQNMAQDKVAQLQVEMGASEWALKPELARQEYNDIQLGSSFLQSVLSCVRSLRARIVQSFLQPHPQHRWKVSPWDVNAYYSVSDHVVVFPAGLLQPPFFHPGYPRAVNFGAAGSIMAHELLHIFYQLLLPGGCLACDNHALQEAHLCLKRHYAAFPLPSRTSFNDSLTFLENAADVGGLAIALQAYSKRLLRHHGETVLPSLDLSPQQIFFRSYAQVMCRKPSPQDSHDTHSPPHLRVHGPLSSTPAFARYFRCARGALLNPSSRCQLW
Briefly: Bradykinin cleavage by Kell protein. It is filed as biochemical.

Assay [5] concerns Soluble Kell proteins (sKell). Briefly: VIP cutting by sKell proteins. It is filed as biochemical, human. As to conditions: sf9 protein free media containing sKell. An excerpt: Soluble Kell proteins (sKell) proteins were used to cut vasoactive intestinal peptide (VIP).
Assay [6] has as its target T1, Kell protein. Briefly: Digestion of big endothelins with soluble recombinant Kell protein, HPLC analysis. It is filed as biochemical. Particulars: for cleavage by wild-type Kell and Jsa Kell: N-terminal sequencing and mass spectrometry of cleaved products, yields endothelins; for Km: measured by HPLC, read-out: substrate affinity for cleavage by Kell protein. The protocol:
Digestion of Big Endothelin-1,-2, and -3 (Big ET-1, -2, and -3) With Soluble Recombinant Proteins
Enzyme reaction mixture was made by mixing 8-16 μl of 1 mg/ml big ET-1 (1-38), big ET-2 (1-37 or 1-38) and big ET-3 (1-41) (American Peptide Co., Sunnyvale, Calif. and Sigma, St. Louis, Mo. and Peptide Institute, Inc., Osaka, Japan), 10 μl 1 mM ZnCl2 final concentration 86 μM and 70 μl recombinant protein containing media. The mixture was incubated at 37° C. for different time periods. Twenty to 25 aliquots of this incubation mix was assayed by reverse HPLC. The conditions of the analysis were:
Solvent A: 0.1% TFA/2,5% 1-Propanol (PrOH)/H2 O (500 μl
Trifluoroacetic acid+1 L H2 O+25 ml 1-PrOH).
Solvent B; 0.09% TFA/2.5% 1-PrOH/90% Acetonitrile/H2 O (450 μl
TFA+1 L Acetonitrile+100 ml H2 O+25 ml 1-PrOH).
Gradient condition was 1-61% A In B over 0-60 minutes at a flow rate of 0.15 ml/min. The column used was reverse phase C18 column (2×150 mm, Vydac).

The target of assay [7] is T1, Kell protein. Briefly: Digestion of big endothelins with soluble recombinant Kell protein, EIA assay. It is filed as biochemical. As to conditions: measured by EIA; 15 min; read-out: substrate affinity for cleavage by Kell protein. The protocol: Enzyme reaction mix was made by mixing various amounts of 10 μM big ET's, 20 μl of 10 Kell assay buffer (0.5 M HEPES, 0.5 mM ZnCl2 and 1.5 NaCl containing 4% (v/v) of supernatant boiled BSA) and various amounts of soluble protein containing media (ranging from 0.0313 μl to 4 μl) and H2 O to make a total volume of 200 μl. The enzyme reaction was incubated at 37° C. for 15 min. At the end of the incubation time, 100 μl of 5 mM EDTA was added to terminate the reaction. Various amounts of the sample up to 100 μl were used in Enzyme-linked Immunoassay using Endothelin-1EIA kit (Cayman Chemical).

The target of assay [8] is Big Endothelin-1 (1-38) (Homo sapiens).
Assay [9] addresses Big Endothelin-3 (1-41) (Homo sapiens).
The next assay has as its target T3, Kell protease (Homo sapiens, UniProt P23276).
T3 sequence (P23276 1-732): T2 sequence (P23276 1-732)
Kind of assay: pH optimum of Kell protease. It is filed as biochemical.

Consider `CC(C)C[C@H](NP(=O)(O)O[C@@H]1O[C@@H](C)[C@H](O)[C@@H](O)[C@H]1O)C(=O)N[C@@H](Cc1c[nH]c2ccccc12)C(=O)O` [Phosphoramidon], for which the “inhibition of Kell enzymatic activity” value with Kell protein [1] is listed as “inhibited”. In addition, the IC50 on Kell protein [2] is 50 to 100 µM. Further, the “effect on cell growth” value is recorded as “inhibited cell growth” in assay [3] (higher concentration of phosphoramidon (50-100 μM)) and “increased cell growth” in assay [3] (low concentration of phosphoramidon (3.5-7.0 μM)).

In the case of `NC(N)=NCCC[C@H](NC(=O)[C@H](Cc1ccccc1)NC(=O)[C@@H]1CCCN1C(=O)[C@H](CO)NC(=O)[C@H](Cc1ccccc1)NC(=O)CNC(=O)[C@@H]1CCCN1C(=O)[C@@H]1CCCN1C(=O)[C@@H](N)CCCN=C(N)N)C(=O)O` [bradykinin] (H-RPPGFSPFR-OH), the “cleavage by Kell protein” value on Kell protein [4] was “does not cleave”.

Turning to “VIP: vasoactive intestinal peptide (1-28), a vasodilator (HSDAVFTDNYTRLRKQMAVKKYLNSILN)”, the “cleavage of VIP by soluble Kell” value in [5] is on record as “cleaves”; in assay [5] (listed as vasoactive intestinal peptide (VIP)), “cleaved”.

As to “big-endothelin-1: inactive 38 amino acid precursor of endothelin-1, substrate of Kell protein (CSCSSLMDKECVYFCHLDIIWVNTPEHVVPYGLGSPRS)”, in the assay with Kell protein [6], the “cleavage by wild-type Kell and Jsa Kell” value is reported as “cleaved”; the Km was around 80 µM.

As to “big-endothelin-2: inactive precursor of endothelin-2, substrate of Kell protein (CSCSSWLDKECVYFCHLDIIWVNTPEQTAPYGEGNPP)”, in the assay with Kell protein [6], the “cleavage by wild-type Kell and Jsa Kell” value is reported as “cleaved”; the Km is around 20 µM.

Consider “big-endothelin-3: inactive precursor of endothelin-3, substrate of Kell protein (CTCFTYKDKECVYYCHLDIIWVNTPEQTVPYGLSNYRGSFR)”, for which, in the assay with Kell protein [6], the “cleavage by wild-type Kell and Jsa Kell” value is recorded as “cleaved”. Also, the Km in the assay with Kell protein [7] is below 2 µM.

In turn, “soluble wild type Kell (secreted form of wild-type Kell protein, extracellular portion, expressed in sf9 cells) (from UniProt P23276) (enzyme)” came in with a cleavage of big endothelin-1; substrate affinity (HPLC) in assay [8] of 80 µM. This molecule registered a cleavage of big endothelin-3; substrate affinity (EIA) in assay [9] below 2 µM. Moreover, the cleavage of big endothelin-2; substrate affinity (HPLC) in the assay with Big Endothelin-2 (1-37) was 20 µM.

B1: Kell protease: secreted recombinant wild-type human Kell blood group protein expressed in sf9 cells (protein)
chain: T1 sequence (P23276 68-732)
With B1, the pH optimum with Kell protease is reported as 6.0-6.5.

B2: Jsa: secreted form of Js^a Kell phenotype (L597P) (protein)
chain: T1 sequence (P23276 68-732) with L530P
In the case of B2, the “cleavage of VIP by soluble Kell” value in [5] is given as “cleaves more than wild type Kell”.
